Each block holds one binder with its values, some of them ahead of it.
Tests used:
Recombinant human Notch4 [1] = target: T1, Recombinant human Notch4 (human, UniProt Q99466 24-1447, limits assumed); test: SPR, antibody captured by anti-human IgG Fc on HC30M chip, Notch4 as analyte
T1 construct: also called Notch4 analyte; Notch4 (antigen)
T1 sequence: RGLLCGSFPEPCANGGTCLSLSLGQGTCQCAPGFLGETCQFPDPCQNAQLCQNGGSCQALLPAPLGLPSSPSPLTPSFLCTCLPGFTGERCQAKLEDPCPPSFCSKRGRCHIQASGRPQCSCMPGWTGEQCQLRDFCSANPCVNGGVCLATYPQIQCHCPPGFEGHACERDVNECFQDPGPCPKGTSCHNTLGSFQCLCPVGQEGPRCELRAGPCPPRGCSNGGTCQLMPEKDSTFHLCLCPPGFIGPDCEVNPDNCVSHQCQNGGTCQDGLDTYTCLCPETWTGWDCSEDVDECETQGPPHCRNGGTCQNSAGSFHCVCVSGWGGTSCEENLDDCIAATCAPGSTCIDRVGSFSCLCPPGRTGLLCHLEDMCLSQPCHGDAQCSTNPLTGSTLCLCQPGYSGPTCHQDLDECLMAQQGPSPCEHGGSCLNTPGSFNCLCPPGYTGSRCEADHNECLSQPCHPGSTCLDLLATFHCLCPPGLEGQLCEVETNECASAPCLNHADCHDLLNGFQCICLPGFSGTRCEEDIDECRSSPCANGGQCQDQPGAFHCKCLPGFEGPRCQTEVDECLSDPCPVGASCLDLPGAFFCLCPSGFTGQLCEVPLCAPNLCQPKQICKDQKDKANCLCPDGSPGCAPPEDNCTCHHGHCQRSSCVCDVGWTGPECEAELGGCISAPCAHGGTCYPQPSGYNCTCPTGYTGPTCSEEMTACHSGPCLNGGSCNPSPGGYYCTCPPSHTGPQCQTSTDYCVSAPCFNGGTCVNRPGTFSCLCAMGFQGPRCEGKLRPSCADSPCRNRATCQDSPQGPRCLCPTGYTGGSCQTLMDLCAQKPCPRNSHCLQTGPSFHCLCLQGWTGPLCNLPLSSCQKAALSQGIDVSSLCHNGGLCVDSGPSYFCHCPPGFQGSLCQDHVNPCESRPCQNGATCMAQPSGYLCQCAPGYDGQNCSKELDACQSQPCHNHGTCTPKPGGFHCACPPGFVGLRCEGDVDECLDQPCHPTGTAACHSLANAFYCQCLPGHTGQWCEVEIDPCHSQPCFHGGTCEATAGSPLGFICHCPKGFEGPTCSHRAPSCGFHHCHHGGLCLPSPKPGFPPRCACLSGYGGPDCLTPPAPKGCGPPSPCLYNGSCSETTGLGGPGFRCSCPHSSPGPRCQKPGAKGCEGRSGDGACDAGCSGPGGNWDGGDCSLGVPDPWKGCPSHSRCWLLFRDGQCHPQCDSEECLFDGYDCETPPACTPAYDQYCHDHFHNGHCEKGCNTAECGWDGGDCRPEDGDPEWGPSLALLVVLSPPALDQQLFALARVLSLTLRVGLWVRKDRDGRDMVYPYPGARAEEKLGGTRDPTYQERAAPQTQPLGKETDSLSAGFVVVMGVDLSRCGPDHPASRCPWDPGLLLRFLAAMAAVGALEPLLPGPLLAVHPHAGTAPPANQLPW
Description: Binding kinetics measurements. Following expression and purification, clones were characterized using surface plasmon resonance (SPR) to determine binding kinetics and epitope binding activity. HC30M chips (polycarboxylate hydrogel surfaces having medium charge density and 30 nm coating thickness) were coated with anti-human Fc antibodies (unlabeled goat anti-human IgG Fc from Southern Biotech) to capture the candidate antibodies. Candidate antibodies were diluted to 10 μg/mL in HEPES-buffered saline Tris-EDTA (HBSTE)) and exposed to the surfaces for 15 minutes. After stabilizing baseline using HBSTE, Notch4 analytes were injected sequentially from a lowest concentration of 0.41 nM to a highest concentration of 300 nM. (Notch4 was diluted in HBSTE+0.5 mg/mL bovine serum albumin (BSA) to obtain a series of 3-fold dilutions.) To assess specificity, experiments were also run using Notch2 as an analyte in a single injection at 100 nM in HBSTE+0.5 mg/mL.

[2] = target: T2, keyhole limpet hemocyanin; test: polyreactivity assay, reactivity normalized to the highest value for each probe
T2 construct: Probe of the polyreactivity assay; also called KLH
Description: (§1) Polyreactivity assays. The non-specific reactivity of H07-Lib3 was evaluated towards cardiolipin, keyhole limpet hemocyanin (KLH), lipopolysaccharides (LPS), single-stranded DNA (ssDNA), double-stranded DNA (dsDNA), insulin, and bovine serum albumin (BSA). Additional therapeutic antibodies (bococizumab, efalizumab, gantenerumab, ibalizumab, lenzilumab, and panitumumab) were included in experiments for comparison. The reactivity percentage of each antibody was normalized to the highest reactivity value for each probe. Threshold for acceptable polyreactivity was set to 30% for all probes.

insulin = target: T3, insulin; test: as above
T3 construct: Probe of the polyreactivity assay
Description: as §1

bovine serum albumin = target: T4, bovine serum albumin (bovine, UniProt P02769 25-607); test: as above
T4 construct: Probe of the polyreactivity assay; also called BSA
Description: as §1

Recombinant human Notch4 [3] = target: T1, Recombinant human Notch4; test: SPR, antibody captured by anti-human polyclonal Fc antibodies on CM5 chip, Notch4 as analyte at 300 nM
Description: (§2) Binding kinetics measurements. H07-Lib3 binding kinetics were determined using surface plasmon resonance (SPR). CM5 chips were coated with anti-human polyclonal Fc antibodies (Southern Biotech) to capture candidate antibody. Candidate antibody was diluted in HEPES-buffered saline with 0.005% surfactant P20 (HBS-P) and exposed to the surfaces for 20 minutes. […] To assess specificity, experiment was also run using Notch3 as an analyte at 300 nM.

Recombinant human Notch4 [4] = target: T1, Recombinant human Notch4; test: SPR, antibody captured by anti-human polyclonal Fc antibodies on CM5 chip, Notch4 as analyte at 300 nM; Table 4 SPR, Notch4 as analyte
Description: as §2

T4 sequence (P02769 25-607 limits assumed): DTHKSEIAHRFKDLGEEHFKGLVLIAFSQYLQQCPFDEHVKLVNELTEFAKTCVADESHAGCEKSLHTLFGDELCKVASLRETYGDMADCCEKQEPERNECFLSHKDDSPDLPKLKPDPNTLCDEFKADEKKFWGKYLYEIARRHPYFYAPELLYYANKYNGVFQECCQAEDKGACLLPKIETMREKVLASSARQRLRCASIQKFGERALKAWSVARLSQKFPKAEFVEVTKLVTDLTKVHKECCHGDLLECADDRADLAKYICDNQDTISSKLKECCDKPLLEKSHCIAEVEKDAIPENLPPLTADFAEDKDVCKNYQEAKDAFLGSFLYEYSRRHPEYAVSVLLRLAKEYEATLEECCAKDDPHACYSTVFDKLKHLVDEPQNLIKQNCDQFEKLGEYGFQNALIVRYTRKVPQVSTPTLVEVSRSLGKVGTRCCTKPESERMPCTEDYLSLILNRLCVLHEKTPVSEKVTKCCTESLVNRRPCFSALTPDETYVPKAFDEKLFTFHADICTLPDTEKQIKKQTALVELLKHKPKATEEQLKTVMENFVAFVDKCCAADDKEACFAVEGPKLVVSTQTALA

Kd (Recombinant human Notch4 [1]): 5 nM
B1: B07-Lib3-Pl1 (antibody, V domains shown)
VH: EVQLVESGGGLVQPGGSLRLSCAASGFTLDNYVMSWVRQAPGKGLELVASISGSSADTYYPDSVKGRFTISRDNAKNSLYLQMNSLRAEDTAVYYCAKGIAAGYGMDVWGQGTTVTVSS
VL: DIVMTQSPLSLPVTPGEPASISCRSSQSLLHSSGYTYLHWYLQKPGQSPQLLIYATSYRAPGVPDRFSGSGSGTDFTLKISRVEAEDVGVYYCMQATHPYTFGGGTKVEIK
notes: Tested as an antibody captured by anti-human IgG Fc

normalized reactivity [2]: < 30% | normalized reactivity (insulin): < 30% | normalized reactivity (bovine serum albumin): < 30% | Kd (Recombinant human Notch4 [1]): 1.4 nM | koff (Recombinant human Notch4 [3]): 0.00164 s⁻¹ | kon (Recombinant human Notch4 [3]): 98300 M⁻¹ s⁻¹ | Kd (Recombinant human Notch4 [4]): 16.6 nM
B2: H07-Lib3-Pl1 (antibody, V domains shown)
VH: EVQLVESGGGLVQPGGSLRLSCAASGLPFSSYAMSWVRQAPGKGLELVASIGTAGDAYYPDSVKGRFTISRDNAKNSLYLQMNSLRAEDTAVYYCARVGPFWQGFAFDIWGQGTMVTVSS
VL: DIVMTQSPLSLPVTPGEPASISCRSSQSLLHSSGHNYLHWYLQKPGQSPQLLIYMTYNRASGVPDRFSGSGSGTDFTLKISRVEAEDVGVYYCLQTTHWPHTFGGGTKVEIK
notes: Tested as an antibody captured by anti-human Fc antibodies

Kd (Recombinant human Notch4 [1]): 5.3 nM
B3: C03-Lib1-Pl1 (antibody, V domains shown)
VH: QVQLVQSGAEVKKPGASVKVSCKVSGYTFTDLPIHWVRQAPGKGLEWMGGINPHSGDAIYAQKFQGRVTMTEDTSTDTAYMELSSLKSEDTAVYYCTTVIAVAGSNDSRPCGRSYLCVLDYWGQGTLVTVSS
VL: DIQMTQSPSSVSASVGDRVTITCNASQGIGHSLAWYQQKPGKAPKLLIYGATSRATGVPSRFSGSGSGTDFTLTISSLQPEDFANYYCLQDYIYPFTFGGGTKVEIK
notes: as for B1

Kd (Recombinant human Notch4 [1]): 0.89 nM
B4: G05-Lib3-Pl1 (antibody, V domains shown)
VH: EVQLVESGGGLVQPGGSLRLSCAASGFTFSDYSMSWVRQAPGKGLELVASISESGHDTYYPDSVKGRFTISRDNAKNSLYLQMNSLRAEDTAVYYCARGIAVAGTRAFDIWGQGTMVTVSS
VL: DIVMTQSPLSLPVTPGEPASISCRSSQSLLYSTGYNYLHWYLQKPGQSPQLLIYMGSYRASGVPDRFSGSGSGTDFTLKISRVEAEDVGVYYCMQALPTPPITFGGGTKVEIK
notes: as for B1

Kd (Recombinant human Notch4 [1]): 0.92 nM
B5: iggrefmat 3-11 (antibody, V domains shown)
VH: EVQLVQSGAEVKKPGASVKVSCKASGYTFATYPISWVRQAPGQGLEWMGGMNPTTGDTIYAQKLQGRGTMTTDPSTSTAYMELRSLRSDDTAVYYCARGDRAWFDPWGQGTLVTVSS
VL: ESALTQPASVSGSPGQSITISCTGTGSNIGAGYGVSWYQQHPGKAPKLMIYANINRPPGVSNRFSGSKSGNTASLTISGLQAEDEADYYCSSYTSSSWMFGGGTKLTVL
notes: Tested as an antibody captured by anti-human IgG Fc; also called H03-Lib6-Pl2

Kd (Recombinant human Notch4 [1]): 3.4 nM
B6: iggrefmat 6-28 (antibody, V domains shown)
VH: EVQLVESGGGLVQPGRSLRLSCAASGFSFSDYHMHWVRQAPGKGLEWVGAISGSAYTTDYADSVEGRFTISRDNAKNSLYLQMNSLRAEDTAVYYCARDDYNKDGFDPWGQGTLVTVSS
VL: DIQMTQSPSSLSASVGDRVTITCRASQSIYSYLAWYQQKPGKAPKLLIYDASRLQSGVPSRFSGSGSGTDFTLTISSLQPEDVATYYCQQGYRSPITFGGGTKVEIK
notes: Tested as an antibody captured by anti-human IgG Fc; also called E03-Lib8H1N4

Kd (Recombinant human Notch4 [1]): 6.1 nM
B7: iggrefmat 1-29 (antibody, V domains shown)
VH: QVQLVQSGAEVKKPGASVKVSCKVSRGTFSTYAIHWVRQAPGKGLEWMGGINAATGYTIYAQKFQGRVTMTEDTSTDTAYMELSSLKSEDTAVYYCVRSVGSIEYWGQGTLVTVSS
VL: DIQMTQSPSSVSASVGDRVTITCRASQGISNHLAWYQQKPGKAPKLLIYGASSRQSGVPSRFSGSGSGTDFTLTISSLQPEDFANYYCLHDRYPYTFGGGTKVEIK
notes: Tested as an antibody captured by anti-human IgG Fc; also called C01-Lib1-Pl1

Kd (Recombinant human Notch4 [1]): 0.41 nM
B8: C08-Lib3-Pl1 (antibody, V domains shown)
VH: EVQLVESGGGLVQPGGSLRLSCAASGLPFSSYGMSWVRQAPGKGLELVASIGTSGTRTYYPDSVKGRFTISRDNAKNSLYLQMNSLRAEDTAVYYCARLGEGSGWSYFDYWGQGTLVTVSS
VL: DIVMTQSPLSLPVTPGEPASISCRSSQSLLHSTGYNYLHWYLQKPGQSPQLLIYSGSYRASGVPDRFSGSGSGTDFTLKISRVEAEDVGVYYCQQGYSTPHTFGGGTKVEIK
notes: as for B1
